In paper PMC7994712 (Nature Communications, 2021):
“Also recorded” adds a separate entry of the source. Where two headings read alike, the source gives them in different places. Bridges are numbered along the chain shown (N, C = ends). Where no end group is shown, it is not given here.

How the values were obtained:
[1] = Aqueous solubility (observed on sample preparation); type: physicochemical; settings: aqueous buffer solution; observation in words
Excerpt: For instance, it is well known that substitution of L-Trp to D-Trp increases the population of the native β-turn and of and the analogue half-life in serum. […] For these reasons, in all the CST analogues, L-Trp was replaced by D-Trp in position 7 and Ser11 was replaced by Thr11 to stabilise the β-turn; and either Phe6 or Phe5 were replaced by Msa (analogues 2 and 4; Fig. 1c). In addition to these modifications, terminal residues were acylated as N-octanoyl amides (analogues 3 and 5). The reasoning behind this modification was to increase the hydrophobicity of the analogue and mimic a similar modification to that observed in ghrelin, a neuropeptide produced by endocrine cells in the digestive tract and that shares with CST the ability to interact with the growth hormone secretagogue receptor GHSR-1a[28].
We also characterised the conformational properties of analogues 2, 3 and 4. […] In these cases (Fig. 8a–c), the aromatic residues 5 and 10 align on one side of the molecule, whereas the side chain of residue 6 is located on the other side of the peptide plane. In this conformation, D-Trp7 is close to the pair of aromatic rings 5 and 10, due to the presence of weak NOEs involving the ring protons of D-Trp7 and the methyl protons of Msa5. […]

SSTR2 = molecular target: T1, SSTR2 (Homo sapiens, UniProt P30874); test: Radio-ligand binding assay, SSTR2
T1 construct: host or cells: CHO-K1
Method: (§1) Graphical and tabular representation of the percentage inhibition of specific binding, as IC50 (nM) binding values for the analogues against the five SSTR1-SSTR5 is represented in Supplementary Fig. 1b and Supplementary Table 1. […] IC50 values were determined by a non-linear, least squares regression analysis using Prism 9 (GraphPad Software, USA), using the Dose-response inhibition (three-parameters) model. […]
(§2) (SSTR1-SSTR5), using a Radio-ligand Binding Assay (Supplementary Figure 1b). Cells were incubated in HEPES buffer pH 7.4 with the new analogues of Cortistatin at 10 different concentrations in a range […]
(§3) specifically bound (performed at Eurofins Panlabs, Inc.). The radioactivity obtained in the absence of SST14 is considered as total binding and that obtained in the presence of 1 µM of SST14 is considered as nonspecific binding. Specific binding was considered as the difference between total and nonspecific.
(§4) Biochemical assay results are presented as the percent inhibition of specific bindin g (% inhib ition) as a […]
(§5) part of each binding assay with the five (SSTR1 -SS T R5 ) . I C50 values were determined by a non-linear, least squares regression analysis using Prism 9 (GraphPad Software, USA), using the Dose -response inhibit ion (t hree-parameters) model.

SSTR1 = molecular target: T2, SSTR1 (Homo sapiens, UniProt P30872); test: Radio-ligand binding assay, SSTR1
T2 construct: host or cells: CHO-K1
Method: as §1, §2, §3, §4, §5

SSTR3 = molecular target: T3, SSTR3 (Homo sapiens, UniProt P32745); test: Radio-ligand binding assay, SSTR3
T3 construct: host or cells: CHO-K1
Method: as §1, §2, §3, §4, §5

[2] = molecular target: Somatostatin receptor 3 (SSTR3) (human), P32745; settings: L-mesityl alanine (2,4,6-trimethylphenylalanine, Msa) in place of Phe6; D-Trp at position 7; disulfide bridge between the two cysteines
[3] = molecular target: Somatostatin receptor 1 (SSTR1) (human), P30872; settings: L-mesityl alanine (2,4,6-trimethylphenylalanine, Msa) in place of Phe6; D-Trp at position 7; disulfide bridge between the two cysteines
[4] = molecular target: Somatostatin receptor 5 (SSTR5) (human), P35346; settings: L-mesityl alanine (2,4,6-trimethylphenylalanine, Msa) in place of Phe6; D-Trp at position 7; disulfide bridge between the two cysteines
[5] = molecular target: Somatostatin receptor 2 (SSTR2) (human), P30874; settings: L-mesityl alanine (2,4,6-trimethylphenylalanine, Msa) in place of Phe6; D-Trp at position 7; disulfide bridge between the two cysteines
[6] = molecular target: Somatostatin receptor 1 (SSTR1) (human), P30872; test: competition with 125I-Tyr11 SST14; settings: D-Trp at position 7, disulfide bridge between the two cysteines
[7] = molecular target: Somatostatin receptor 2 (SSTR2) (human), P30874; test: competition with 125I-Tyr11 SST14; settings: D-Trp at position 7, disulfide bridge between the two cysteines
[8] = molecular target: Somatostatin receptor 3 (SSTR3) (human), P32745; test: competition with 125I-Tyr11 SST14
[9] = molecular target: Somatostatin receptor 5 (SSTR5) (human), P35346; test: competition with 125I-Tyr11 SST14; settings: D-Trp at position 7, disulfide bridge between the two cysteines
[10] = molecular target: Somatostatin receptor 1 (SSTR1) (human), P30872; settings: chains peptide; internal disulfide bond between the two cysteines (cyclic peptide)
[11] = molecular target: Somatostatin receptor 5 (SSTR5) (human), P35346; settings: chains peptide; internal disulfide bond between the two cysteines (cyclic peptide)
[12] = molecular target: Somatostatin receptor 4 (SSTR4) (human), P31391; settings: chains peptide; internal disulfide bond between the two cysteines (cyclic peptide)
[13] = molecular target: Somatostatin receptor 2 (SSTR2) (human), P30874; settings: chains peptide; internal disulfide bond between the two cysteines (cyclic peptide)
[14] = molecular target: Somatostatin receptor 3 (SSTR3) (human), P32745; settings: L-mesityl alanine (Msa) in place of Phe5; D-Trp at position 7; disulfide bridge between the two cysteines
[15] = molecular target: Somatostatin receptor 1 (SSTR1) (human), P30872; settings: L-mesityl alanine (Msa) in place of Phe5; D-Trp at position 7; disulfide bridge between the two cysteines
[16] = molecular target: Somatostatin receptor 5 (SSTR5) (human), P35346; settings: L-mesityl alanine (Msa) in place of Phe5; D-Trp at position 7; disulfide bridge between the two cysteines
[17] = molecular target: Somatostatin receptor 2 (SSTR2) (human), P30874; settings: L-mesityl alanine (Msa) in place of Phe5; D-Trp at position 7; disulfide bridge between the two cysteines
[18] = molecular target: Somatostatin receptor 3 (SSTR3) (human), P32745; settings: octanoyl moiety at the N-terminus (N-octanoyl amide); L-mesityl alanine (Msa) at position 5; D-Trp at position 7; disulfide bridge between the two cysteines
[19] = molecular target: Somatostatin receptor 1 (SSTR1) (human), P30872; settings: octanoyl moiety at the N-terminus (N-octanoyl amide); L-mesityl alanine (Msa) at position 5; D-Trp at position 7; disulfide bridge between the two cysteines
[20] = molecular target: Somatostatin receptor 5 (SSTR5) (human), P35346; settings: octanoyl moiety at the N-terminus (N-octanoyl amide); L-mesityl alanine (Msa) at position 5; D-Trp at position 7; disulfide bridge between the two cysteines
[21] = molecular target: Somatostatin receptor 2 (SSTR2) (human), P30874; settings: octanoyl moiety at the N-terminus (N-octanoyl amide); L-mesityl alanine (Msa) at position 5; D-Trp at position 7; disulfide bridge between the two cysteines
[22] = molecular target: Somatostatin receptor 3 (SSTR3) (human), P32745; settings: N-octanoyl amide on the N-terminal residue; L-mesityl alanine (Msa) at position 6; D-Trp at position 7; disulfide bridge between the two cysteines
[23] = molecular target: Somatostatin receptor 1 (SSTR1) (human), P30872; settings: N-octanoyl amide on the N-terminal residue; L-mesityl alanine (Msa) at position 6; D-Trp at position 7; disulfide bridge between the two cysteines
[24] = molecular target: Somatostatin receptor 5 (SSTR5) (human), P35346; settings: N-octanoyl amide on the N-terminal residue; L-mesityl alanine (Msa) at position 6; D-Trp at position 7; disulfide bridge between the two cysteines
[25] = molecular target: Somatostatin receptor 2 (SSTR2) (human), P30874; settings: N-octanoyl amide on the N-terminal residue; L-mesityl alanine (Msa) at position 6; D-Trp at position 7; disulfide bridge between the two cysteines
[26] = L-mesityl alanine (2,4,6-trimethylphenylalanine, Msa) in place of Phe6
[27] = L-mesityl alanine (Msa) in place of Phe5
[28] = octanoyl moiety at the N-terminus (N-octanoyl amide), L-mesityl alanine (Msa) at position 5
[29] = N-octanoyl amide on the N-terminal residue, L-mesityl alanine (Msa) at position 6

Somatostatin receptor 2 (SSTR2) (human), P30874, sequence (P30874 whole entry): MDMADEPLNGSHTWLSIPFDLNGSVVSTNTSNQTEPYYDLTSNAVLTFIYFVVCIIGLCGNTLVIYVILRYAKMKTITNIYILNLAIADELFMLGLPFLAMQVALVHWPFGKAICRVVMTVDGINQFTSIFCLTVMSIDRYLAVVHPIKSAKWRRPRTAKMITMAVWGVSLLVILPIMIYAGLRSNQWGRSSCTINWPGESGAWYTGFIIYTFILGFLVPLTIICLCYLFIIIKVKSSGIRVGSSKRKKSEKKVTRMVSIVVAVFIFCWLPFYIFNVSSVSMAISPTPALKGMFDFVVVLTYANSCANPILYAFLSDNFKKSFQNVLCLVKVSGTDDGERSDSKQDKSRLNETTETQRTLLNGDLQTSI
Somatostatin receptor 3 (SSTR3) (human), P32745, sequence (P32745 whole entry): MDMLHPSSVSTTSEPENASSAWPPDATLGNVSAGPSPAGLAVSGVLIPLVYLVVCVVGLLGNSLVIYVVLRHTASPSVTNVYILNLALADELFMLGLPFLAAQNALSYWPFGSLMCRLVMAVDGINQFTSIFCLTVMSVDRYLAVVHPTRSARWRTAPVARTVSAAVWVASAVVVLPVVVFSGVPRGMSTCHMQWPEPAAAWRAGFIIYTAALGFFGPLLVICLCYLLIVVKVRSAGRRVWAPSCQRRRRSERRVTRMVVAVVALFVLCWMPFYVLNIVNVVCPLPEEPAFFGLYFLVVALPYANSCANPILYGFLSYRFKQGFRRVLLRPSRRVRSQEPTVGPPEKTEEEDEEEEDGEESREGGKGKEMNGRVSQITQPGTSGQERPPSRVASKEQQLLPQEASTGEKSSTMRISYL
Somatostatin receptor 5 (SSTR5) (human), P35346, sequence (P35346 whole entry): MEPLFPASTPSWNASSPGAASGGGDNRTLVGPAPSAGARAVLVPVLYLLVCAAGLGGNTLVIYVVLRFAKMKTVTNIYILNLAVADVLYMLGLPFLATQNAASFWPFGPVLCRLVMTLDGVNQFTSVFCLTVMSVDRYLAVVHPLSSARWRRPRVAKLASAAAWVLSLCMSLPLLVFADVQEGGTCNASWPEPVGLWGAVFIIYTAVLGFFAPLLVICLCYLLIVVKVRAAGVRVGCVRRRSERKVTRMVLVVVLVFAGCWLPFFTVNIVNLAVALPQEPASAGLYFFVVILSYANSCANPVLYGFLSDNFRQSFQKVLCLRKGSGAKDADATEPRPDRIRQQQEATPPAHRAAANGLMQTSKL
Somatostatin receptor 1 (SSTR1) (human), P30872, sequence (P30872 whole entry): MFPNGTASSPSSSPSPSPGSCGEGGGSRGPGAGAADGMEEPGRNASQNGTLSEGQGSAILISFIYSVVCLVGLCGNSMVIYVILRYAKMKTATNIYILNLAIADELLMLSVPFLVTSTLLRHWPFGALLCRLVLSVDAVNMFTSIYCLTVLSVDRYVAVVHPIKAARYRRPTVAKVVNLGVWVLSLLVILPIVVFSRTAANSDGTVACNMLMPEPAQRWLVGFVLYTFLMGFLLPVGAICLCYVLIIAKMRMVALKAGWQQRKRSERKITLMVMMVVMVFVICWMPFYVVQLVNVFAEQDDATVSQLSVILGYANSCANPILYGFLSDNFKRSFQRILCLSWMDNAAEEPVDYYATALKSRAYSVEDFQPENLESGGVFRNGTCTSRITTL
T1 sequence (P30874 whole entry): as the sequence (P30874 whole entry) above
Somatostatin receptor 4 (SSTR4) (human), P31391, sequence (P31391 whole entry): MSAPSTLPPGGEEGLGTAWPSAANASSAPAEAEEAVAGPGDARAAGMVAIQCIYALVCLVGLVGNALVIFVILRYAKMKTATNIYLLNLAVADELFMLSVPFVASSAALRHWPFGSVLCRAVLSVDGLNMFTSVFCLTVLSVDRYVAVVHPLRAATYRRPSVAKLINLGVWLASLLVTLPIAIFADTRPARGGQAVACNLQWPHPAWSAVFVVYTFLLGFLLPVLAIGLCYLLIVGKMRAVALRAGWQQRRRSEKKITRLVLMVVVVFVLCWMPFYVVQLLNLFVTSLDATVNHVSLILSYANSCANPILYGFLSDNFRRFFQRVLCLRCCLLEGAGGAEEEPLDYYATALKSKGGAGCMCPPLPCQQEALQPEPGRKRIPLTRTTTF
T3 sequence (P32745 whole entry): as the sequence (P32745 whole entry) above
T2 sequence (P30872 whole entry): as the sequence (P30872 whole entry) above

CCCCCCCC(=O)N1CCC[C@H]1C(=O)N[C@H]1CSSC[C@@H](C(=O)O)NC(=O)[C@H](CO)NC(=O)[C@H]([C@@H](C)O)NC(=O)[C@H](Cc2ccccc2)NC(=O)[C@H]([C@@H](C)O)NC(=O)[C@H](CCCCN)NC(=O)[C@@H](Cc2c[nH]c3ccccc23)NC(=O)[C@H](Cc2ccccc2)NC(=O)[C@H](Cc2c(C)cc(C)cc2C)NC(=O)[C@H](CC(N)=O)NC(=O)[C@H](CCCCN)NC1=O [analogue 6]
aqueous solubility [1]: reduced its aqueous solubility; also recorded: significant impact on the solubility of the sample

CCCCCCCC(=O)N1CCC[C@H]1C(=O)N[C@H]1CSSC[C@@H](C(=O)N[C@@H](CCCCN)C(=O)O)NC(=O)[C@H](CO)NC(=O)[C@H]([C@@H](C)O)NC(=O)[C@H](Cc2ccccc2)NC(=O)[C@H]([C@@H](C)O)NC(=O)[C@H](CCCCN)NC(=O)[C@@H](Cc2c[nH]c3ccccc23)NC(=O)[C@H](Cc2c(C)cc(C)cc2C)NC(=O)[C@H](Cc2ccccc2)NC(=O)[C@H](CC(N)=O)NC(=O)[C@H](CCCCN)NC1=O [A3]
IC50 (SSTR2): 2.8 nM

Cc1cc(C)c(C[C@@H]2NC(=O)[C@H](Cc3ccccc3)NC(=O)[C@H](CC(N)=O)NC(=O)[C@H](CCCCN)NC(=O)[C@@H](NC(=O)[C@@H]3CCCN3)CSSC[C@@H](C(=O)N[C@@H](CCCCN)C(=O)O)NC(=O)[C@H](CO)NC(=O)[C@H]([C@@H](C)O)NC(=O)[C@H](Cc3ccccc3)NC(=O)[C@H]([C@@H](C)O)NC(=O)[C@H](CCCCN)NC(=O)[C@@H](Cc3c[nH]c4ccccc34)NC2=O)c(C)c1 [A2]
IC50 (SSTR1): 14.1 nM | IC50 (SSTR2): 0.42 nM | IC50 (SSTR3): 16 nM

PCKNFFWKTFSSCK
cleaved bond: Cys13-L-Lys14, major

PCKNFFWKTFTSCK [Cortistatin analogue 2]
IC50 [2]: 16 nM | IC50 [3]: 14.1 nM | IC50 [4]: 33 nM | IC50 [5]: 0.42 nM | IC50 [6, 26]: 14.1 nM | IC50 [7, 26]: 0.42 nM | IC50 ([8]; L-mesityl alanine (2,4,6-trimethylphenylalanine, Msa) in place of Phe6, D-Trp at position 7, disulfide bridge between the two cysteines): 16 nM | IC50 [9, 26]: 33 nM

PCKNFFWKTFSSCK (disulfide 2-13 (inferred)) [Cortistatin-14 (r,mCST-14), Q62949 99-112]
IC50 [10]: 1.7 nM | IC50 [11]: 0.3 nM | IC50 [12]: 0.2 nM | IC50 [13]: 0.09 nM | IC50 ([8]; chains peptide, internal disulfide bond between the two cysteines (cyclic peptide)): 0.3 nM

PCKNFFWKTFTSCK [Cortistatin analogue 4]
IC50 [14]: 1.8 nM | IC50 [15]: 14.7 nM | IC50 [16]: 4 nM | IC50 [17]: 9.8 nM | IC50 [6, 27]: 14.7 nM | IC50 [7, 27]: 9.8 nM | IC50 ([8]; L-mesityl alanine (Msa) in place of Phe5, D-Trp at position 7, disulfide bridge between the two cysteines): 1.8 nM | IC50 [9, 27]: 4 nM

PCKNFFWKTFTSCK [Cortistatin analogue 5]
IC50 [18]: 5.1 nM | IC50 [19]: 47.3 nM | IC50 [20]: 1.12 nM | IC50 [21]: 35 nM | IC50 [6, 28]: 47.3 nM | IC50 [7, 28]: 35 nM | IC50 ([8]; octanoyl moiety at the N-terminus (N-octanoyl amide), L-mesityl alanine (Msa) at position 5, D-Trp at position 7, disulfide bridge between the two cysteines): 5.1 nM | IC50 [9, 28]: 1.12 nM

PCKNFFWKTFTSCK [Cortistatin analogue 3]
IC50 [22]: 100 nM | IC50 [23]: > 300 nM | IC50 [24]: > 300 nM | IC50 [25]: 2.8 nM | IC50 [6, 29]: > 300 nM | IC50 [7, 29]: 2.8 nM | IC50 ([8]; N-octanoyl amide on the N-terminal residue, L-mesityl alanine (Msa) at position 6, D-Trp at position 7, disulfide bridge between the two cysteines): 100 nM | IC50 [9, 29]: > 300 nM
